B1: E5-NLD-TCR (TCR, V domains shown)
Valpha: AQKVTQAQTEISVVEKEDVTLDCVYETRDTTYYLFWYKQPPSGELVFLIRRNSFDEQNEISGRYSWNFQKSTSSFNFTITASQVVDSAVYFCALSEGGGSQGNLIFGKGTKLSVKP
Vbeta: GVSQSPRYKVTKRGQDVALRCDPISGHVSLYWYRQALGQGPEFLTYFNYEAQQDKSGLPNDRFSAERPEGSISTLTIQRTEQRDSAMYRCASSPELAGPQETQYFGPGTRLLVL
B2: E2-TLQ-TCR (TCR, V domains shown)
Valpha: AQTVTQSQPEMSVQEAETVTLSCTYDTSESNYYLFWYKQPPSRQMILVIRQEAYKQQNATENRFSVNFQKAAKSFSLKISDSQLGDTAMYFCAFTYGGSQGNLIFGKGTKLSVKP
Vbeta: EPEVTQTPSHQVTQMGQEVILRCVPISNHLYFYWYRQILGQKVEFLVSFYNNEISEKSEIFDDQFSVERPDGSNFTLKIRSTKLEDSAMYFCASRASVGVGTGELFFGEGSRLTVL

What was measured:
[1] = target: T1, HPV16-E5 peptide on HLA-C*05:01 (human); assay: cytokine release
T1 peptide: NLDTASTTL

[2] = target: T2, HPV16-E5 peptide on HLA-C*08:02 (human); assay: cytokine release
T2 peptide: NLDTASTTL

[3] = target: T3, HPV16-E2 peptide on HLA-A*02:01 (human); assay: killing
T3 peptide: TLQDVSLEVYL

| Binder | binding result [1] | binding result [2] | binding result [3] |
| --- | --- | --- | --- |
| B1 | recognises | recognises |  |
| B2 |  |  | recognises |

Reference: patent US20230348558A1 (published 2023)
